In PMC8304084, “A Concerted Action of UBA5 C-Terminal Unstructured Regions Is Important for Transfer of Activated UFM1 to UFC1” (International Journal of Molecular Sciences, 2021):

Experiments:
Assay in all cases: ITC; VP-ITC, 25 °C; UBA5 peptides (~400 µM) titrated into 20–25 µM binding partner; 25 mM HEPES pH 7.5, 100 mM NaCl; one-site model; a single profile for each interaction
Conditions in all cases: both partners purified
[1] = molecular target: T1, Full length UFM1, residues 2–83 (UniProt P61960 2-83)
T1 construct: N-terminal cloning artefact left after TEV cleavage (vector pET39_Ub19); UFM1 (ubiquitin fold modifier 1), residues 2–83 (processed form ending at Gly83); also called Ubiquitin fold modifier 1; source: E. coli T7 Express, purified (His Trap IMAC, TEV cleavage, reverse IMAC, Superdex gel filtration); not shown: modified ubiquitin tag (Ub19), N-terminal, cleaved

LC3B, residues 5–120 = LC3B, residues 5–120 (UniProt Q9GZQ8 5-120)
[2] = molecular target: T2, GABARAPL2, residues 3–116 (UniProt P60520 3-116)
T2 construct: N-terminal cloning artefact left after TEV cleavage (vector pET39_Ub19); source: E. coli T7 Express, purified (His Trap IMAC, TEV cleavage, reverse IMAC, Superdex gel filtration); not shown: modified ubiquitin tag (Ub19), N-terminal, cleaved
T2 sequence (P60520 other isoform, or with tags, fused parts or gaps): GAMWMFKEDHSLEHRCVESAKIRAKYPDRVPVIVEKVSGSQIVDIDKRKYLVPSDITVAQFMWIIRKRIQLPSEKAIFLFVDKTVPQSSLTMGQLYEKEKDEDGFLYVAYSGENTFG

T1 sequence (P61960 other isoform, or with tags, fused parts or gaps): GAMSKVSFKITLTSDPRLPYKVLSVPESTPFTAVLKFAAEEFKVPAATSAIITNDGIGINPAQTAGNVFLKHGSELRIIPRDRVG

Kd [1]: > 100 µM
Kd (LC3B, residues 5–120): > 100 µM
Kd [2]: > 100 µM
B1: UBA5 C-terminal region R2, residues 359–376 (peptide)
chain: GAMGPVPDLPEGITVAYTIPK
notes: N-terminal cloning artefact left after TEV cleavage (vector pET39_Ub19); also called isolated R2 peptide; source: E. coli T7 Express, purified (His Trap IMAC, TEV cleavage, reverse IMAC, Superdex gel filtration); not shown: modified ubiquitin tag (Ub19), N-terminal, cleaved
